Data published in patent publication EP1746106A2 (Biogen Idec MA Inc., dated 2007).

T1: N-terminus FLAG-tagged human full length TACI expressed on 293EBNA cells (pJST552) (human, UniProt O14836 1-293)
T1 construct: also called FLAG-tagged full length human TACI; flag-tagged full length TACI; not shown: N-terminal FLAG tag
T1 sequence: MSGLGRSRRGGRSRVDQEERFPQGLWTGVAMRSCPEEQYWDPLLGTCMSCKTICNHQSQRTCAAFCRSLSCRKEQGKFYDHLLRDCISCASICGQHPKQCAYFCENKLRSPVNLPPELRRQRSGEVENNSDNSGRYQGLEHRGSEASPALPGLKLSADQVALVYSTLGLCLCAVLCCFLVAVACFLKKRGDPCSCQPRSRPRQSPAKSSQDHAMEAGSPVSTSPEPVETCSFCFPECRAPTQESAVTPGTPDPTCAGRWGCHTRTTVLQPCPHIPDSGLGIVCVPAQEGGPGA

B1: human TACI(1-160)-Ig fusion protein (Fc fusion)
chain: MSGLGRSRRGGRSRVDQEERFPQGLWTGVAMRSCPEEQYWDPLLGTCMSCKTICNHQSQRTCAAFCRSLSCRKEQGKFYDHLLRDCISCASICGQHPKQCAYFCENKLRSPVNLPPELRRQRSGEVENNSDNSGRYQGLEHRGSEASPALPGLKLSADQV
notes: Used as conditioned medium (Optimem) from transfected 293 cells; also called hTACI(1-160)-Ig; PS882 product; not shown: human IgG-Fc
B2: myc-tagged murine APRIL (ligand)
chain: EQKLISEEDLNGGGGSKELAVLTQKHKKKHSVLHLVPVNITSKDSDVTEVMWQPVLRRGRGLEAQGDIVRVWDTGIYLLYSQVLFHDVTFTMGQVVSREGQGRRETLFRCIRSMPSDPDRAYNSCYSAGVFHLHQGDIITVKIPRANAKLSLSPHGTFLGFVKL
modifications: Glycosylated (expressed in Pichia pastoris); the letters do not carry the glycans.
notes: Purified from P. pastoris supernate; also called myc-muAPRIL; Myc-Murine APRIL A88

Key:
[1] = target: T2, FLAG-tagged soluble muBAFF (murine, UniProt Q9WU72 127-309, limits assumed); experiment: co-immunoprecipitation with protein A-Sepharose, anti-FLAG M2 Western blot
T2 construct: Anti-FLAG M2-purified, 500 ng used; not shown: FLAG tag

[2] = target: T1, N-terminus FLAG-tagged human full …; experiment: flow cytometry on 293EBNA cells transfected with FLAG-tagged full length human TACI; detection with rabbit anti-mAPRIL Rb1532 and anti-rabbit IgG-PE

T2 sequence (Q9WU72 127-309 limits assumed): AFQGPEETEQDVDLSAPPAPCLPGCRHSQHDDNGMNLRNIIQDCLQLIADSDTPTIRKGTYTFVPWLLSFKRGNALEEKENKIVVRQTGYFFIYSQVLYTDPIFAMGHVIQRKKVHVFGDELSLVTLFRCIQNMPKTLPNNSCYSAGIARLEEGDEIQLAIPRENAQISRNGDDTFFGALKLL

Row | Binder | binding result [1] | binding result [2]
1 | B1 | no binding (tested: 500 ng) | 
2 | B2 |  | binds
